Patent US20250163186A1 (PHYLAXIS BIOSCIENCE, published 2025)
Positions count from the first letter of the chain named.

B1: 9G9 (VHH)
VHH: EVQLLESGGGEVQPGGSLRLSCVASGLTFSSYNTGWLRQAPGKEREFVGLSGSSSTSTYYAESVKGRFTISRDNAKNTVYLQMTSLRAEDTAVYYCAARRLLSTYWSDRSWDFWGQGTLVTVEP
notes: also called hzB10v40 VHH, CDR1 site 9 M to T
B2: 33-2C5 (VHH)
VHH: B1 VHH with T34M, L102H
B3: 10E3 (VHH)
VHH: B1 VHH with T34M, G35S
notes: also called hzB10v40 VHH, CDR1 site 10 G to S
B4: 35G3 (VHH)
VHH: B1 VHH with T34M, T104R
B5: 44A11 (VHH)
VHH: B1 VHH with T34M, F113K
B6: 9H9 (VHH)
VHH: B1 VHH with T34F
notes: also called hzB10v40 VHH, CDR1 site 9 M to F
B7: 39C11 (VHH)
VHH: B1 VHH with T34M, D108M
B8: 33-2A2 (VHH)
VHH: B1 VHH with T34M, L102K
B9: 44C1 (VHH)
VHH: B1 VHH with T34M, F113M
B10: 10G10 (VHH)
VHH: B1 VHH with T34M, G35A
notes: also called hzB10v40 VHH, CDR1 site 10 G to A
B11: 39E11 (VHH)
VHH: B1 VHH with T34M, D108H
B12: 33-2C4 (VHH)
VHH: B1 VHH with T34M, L102F
B13: 32F11 (VHH)
VHH: B1 VHH with T34M, L101R
B14: 28H1 (VHH)
VHH: B1 VHH with T34M, A97S

The binders below were run against T1, human IgE (human, UniProt P01854 1-428) (assay: ELISA, clone lysate on IgE-coated plate).
T1 construct: written under the same molecule; also called IgE (Abcam ab65866); soluble IgE
Excerpt: Each amino acid in CDR1 (SEQ ID NO:3), CDR2 (SEQ ID NO:68), and CDR3 (SEQ ID NO:74) was randomly replaced such that the 20 natural amino acids would likely all have been sampled at every position. The expression vector for the VHH containing the mutagenized CDRs was then transfected into E. coli, and at least 96 clones were randomly chosen for each position mutated in each CDR. This gives likely coverage of all potential mutations at each position since the probability to get any given amino acid at that position is 5%. […] The heat maps represent the relative binding for each clone determined by the range of OD values from the ELISA background to WT CDR binding (FIGS. 16A-16C). Site numbering for each residue tested is indicated by the inset tables in FIGS. 16A-16C.

T1 sequence (P01854 other isoform, or with tags, fused parts or gaps limits assumed, form in doubt): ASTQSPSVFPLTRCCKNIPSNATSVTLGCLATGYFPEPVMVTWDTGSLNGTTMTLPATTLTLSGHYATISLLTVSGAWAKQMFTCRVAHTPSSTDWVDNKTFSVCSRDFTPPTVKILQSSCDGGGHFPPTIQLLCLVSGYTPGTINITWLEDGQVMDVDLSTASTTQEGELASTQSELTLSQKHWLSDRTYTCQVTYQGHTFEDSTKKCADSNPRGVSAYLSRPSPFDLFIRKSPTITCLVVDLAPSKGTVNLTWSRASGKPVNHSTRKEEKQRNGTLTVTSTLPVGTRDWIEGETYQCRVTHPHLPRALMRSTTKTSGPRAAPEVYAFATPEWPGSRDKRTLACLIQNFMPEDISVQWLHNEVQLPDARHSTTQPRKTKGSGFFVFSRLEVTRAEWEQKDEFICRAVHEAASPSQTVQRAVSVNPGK

| Confirm OD450 Duplicate1 | Confirm OD450 Duplicate2 | R1 Screening OD450 | Binder |
| --- | --- | --- | --- |
| 0.535 | 0.524 | 0.886 | B1 |
| 0.525 | 0.573 | 1.01 | B2 |
| 0.508 | 0.494 | 0.846 | B3 |
| 0.593 | 0.612 | 1.07 | B4 |
| 0.661 | 0.654 | 1.14 | B5 |
| 0.49 | 0.5 | 0.88 | B6 |
| 0.562 | 0.585 | 1 | B7 |
| 0.557 | 0.564 | 1.01 | B8 |
| 0.556 | 0.537 | 1.06 | B9 |
| 0.484 | 0.479 | 0.966 | B10 |
| 0.55 | 0.534 | 1.01 | B11 |
| 0.514 | 0.523 | 1 | B12 |
| 0.557 | 0.557 | 0.924 | B13 |
| 0.471 | 0.492 | 0.927 | B14 |
